Bridges are numbered along the chain shown (N, C = ends). Where no end group is shown, it is not given here.
T1: Alexa-488 labeled PIVKAII Gla domain peptide (13-27) (disulfide 5-10; also: Alexa Fluor 488 label, site not given here)
T1 construct: also called Alexa488-PIVKAII peptide (13-27 cyc); Alexa488-PIVKA-II (13-27)
T1 peptide: LERECVEETCSYEEA

B1: monoclonal antibody 3C10 (antibody, V domains shown)
VH: EVQLVESGGDLVKPGGSLKLSCAASGFTFSSYGMSWVRQTPDKRLEWVATISRGGSSTYYPDSVKGRFTISRDNAKNNLYLQMSSLKSEDTAMYYCASLNYGNFFDYWGQGTTLTVSS
VL: DVVMTQTPLSLPVSLGDQASISCRSSQSLVHSNGNTYLHWYLQKPGQSPKLLIYKVSNRFSGVPDRFSGSGSGTDFTLKISRVEAEDLGVYFCSQNRHVPPTFGGGTKLEIKR
B2: Gla domain Factor IX peptide (sequence 11) (peptide)
peptide: LERECMEEKCSFEEA
notes: Synthetic 15-mer homologous to PIVKA-II 13-27, with plain Glu; also called PIVKAII Gla domain (13-27) analog
B3: Gla domain Protein C peptide (sequence 14) (peptide)
peptide: LERECIEEICDFEEA
notes: as for B2
B4: Gla domain Protein S peptide (sequence 15) (peptide)
peptide: LERECIEELCNKEEA
notes: as for B2
B5: Gla domain Factor X peptide (sequence 12) (peptide)
peptide: LERECMEETCSYEEA
notes: as for B2
B6: Gla domain Factor VII peptide (sequence 13) (peptide)
peptide: LERECKEEQCSFEEA
notes: as for B2
B7: Gla domain Protein Z peptide (sequence 16) (peptide)
peptide: LEKECYEEICVYEEA
notes: as for B2

Biological target: T1, Alexa-488 labeled PIVKAII Gla domain …
Experiment: fluorescence quenching titration (FRET): 0.05 nM Alexa488 PIVKAII peptide (13-27), BHQ-labelled mAb 3C10 varied, quenching against free antibody binding sites, simple binding model

Kd [nM]	Binder
0.1	B1

The binders below were run against B1 (assay: FCS competition: 2 nM Alexa488-PIVKAII (13-27) premixed with 10 nM mAb 3C10, analog peptide added, overnight; D of the tracer; negative control 47±4 (no displacement), positive control 174±10).

Apparent Diffusion Coefficient (D) [um^2/sec]	Binder
48	B2
53	B3
50	B4
52	B5
49	B6
51	B7

— patent US8283162 (AbbVie / Abbott, dated 2012)
